In patent US20210332145A1 (SINGLE CELL TECHNOLOGY, published 2021):

How the values were obtained:
[1] = target: T1, human BCMA with a His tag (ACROBiosystems, Catalog No.: BCA-H522y) (human); experiment: SPR, Biacore T200
T1 construct: Bought His-tagged recombinant protein; also called huBCMA-His; Recombinant human BCMA
T1 chain: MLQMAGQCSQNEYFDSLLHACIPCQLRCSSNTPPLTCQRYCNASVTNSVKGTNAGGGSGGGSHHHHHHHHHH
Method: The binding affinity of select anti-BCMA was measured on a surface plasmon resonance (SPR) instrument, Biacore T200™, against human BCMA by a method known in the art.
In experiments performed essentially as described above, a subset of anti-human BCMA antibodies of the present disclosure bind human BCMA with a His tag (ACROBiosystems, Beijing, China, Catalog No.: BCA-H522y, SEQ ID NO:2) with affinity shown in Table 6.

[2] = target: T2, BCMA on cells (293T cells transfected with BCMA; H929, MM.1S and U266 cell lines expressing BCMA) (human, UniProt Q02223 1-184); experiment: flow cytometry, H929 cells
T2 construct: H929, MM.1S and U266 carry the native protein; also called B-cell Maturation Antigen; TNFRSF17
T2 sequence: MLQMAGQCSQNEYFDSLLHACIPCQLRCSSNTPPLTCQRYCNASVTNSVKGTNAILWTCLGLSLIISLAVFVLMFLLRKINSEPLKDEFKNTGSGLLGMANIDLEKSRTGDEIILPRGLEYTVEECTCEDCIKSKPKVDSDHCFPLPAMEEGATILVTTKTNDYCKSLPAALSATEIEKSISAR
Method: A cell line expressing BCMA, H929, was used to assess binding by anti-BCMA antibodies on the native protein on the cell surface by flow cytometry according to the known art. A subset of anti-human BCMA antibodies were assayed for binding to H929 and the fraction of cells bound the labeled antibody above background defined by control is shown in Table 8.

[3] = target: T2, BCMA on cells (293T cells transfected …); experiment: flow cytometry, H929 cells; remark: listed apart in the source
[4] = target: T3, cyno BCMA with a His tag (ACROBiosystems, Catalog No.: BCA-052H7) (cyno); experiment: ELISA, plate-coated cyno BCMA-His
T3 construct: Bought His-tagged recombinant protein
T3 sequence (chain, as listed by the source limits assumed): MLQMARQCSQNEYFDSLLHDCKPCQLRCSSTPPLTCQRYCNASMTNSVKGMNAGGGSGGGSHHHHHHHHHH
Method: (§1) The recombinantly expressed antibodies were used to assess binding activity to BCMA of different species origins by conventional ELISA according to the known art. Recombinant human BCMA, cyno BCMA, and mouse BCMA were coated onto ELISA plates to detect binding at serially diluted concentrations of the anti-BCMA antibody preparations.
(§2) The ability for antibodies of the present disclosure to bind human BCMA was measured with an ELISA assay. For the BCMA binding assay, a 96-well plate (Nunc) is coated with human BCMA with a His tag (ACROBiosystems, Catalog No.: AC108P1-180611F2-Bulk, SEQ ID NO:2) at 0.2 μg/well overnight at 4° C. Wells are blocked for 2 h with blocking buffer (PBS containing 3% bovine serum albumin). Wells are washed three times with PBS containing 0.1% Tween-20. Anti-human BCMA antibodies of the present disclosure or control IgG (100 μL) is then added and incubated at room temperature for 1 h. After washing, the plate is incubated with 100 μL of goat anti-mouse IgG Fcγ Fragment Specific-HRP conjugate (Jackson ImmunoResearch) at room temperature for 1 h. The plates are washed and then incubated with 100 μL of 3,3′,5,5′-tetra-methylbenzidine. The absorbance at 450 nm is read on a microplate reader. The half maximal effective concentration (EC50) is calculated using GraphPad Prism 6 software.
In experiments performed essentially as described above, anti-human BCMA antibodies of the present disclosure bind cyno BCMA with a His tag (ACROBiosystems, Beijing, China, Catalog No.: BCA-052H7, SEQ ID NO:110) with an EC50 values shown in Table 4.

[5] = target: T1, human BCMA with a His tag …; experiment: ELISA, plate-coated human BCMA-His
Method: as §1, §2
In experiments performed essentially as described above, anti-human BCMA antibodies of the present disclosure bind human BCMA with a His tag (ACROBiosystems, Beijing, China, Catalog No.: BCA-H522y, SEQ ID NO:2) with an EC50 values shown in Table 3.

[6] = target: T4, mouse BCMA with a His tag (ACROBiosystems, Catalog No.: BCA-M52H3) (mouse); experiment: ELISA, plate-coated mouse BCMA-His
T4 construct: Bought His-tagged recombinant protein
T4 chain: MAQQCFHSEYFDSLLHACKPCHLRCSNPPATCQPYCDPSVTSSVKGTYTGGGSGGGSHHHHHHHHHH
Method: as §1, §2
In experiments performed essentially as described above, anti-human BCMA antibodies of the present disclosure bind mouse BCMA with a His tag (ACROBiosystems, Beijing, China, Catalog No.: BCA-M52H3, SEQ ID NO:109) with an EC50 values shown in Table 5.

[7] = target: T2, BCMA on cells (293T cells transfected …); experiment: flow cytometry, 293T cells transfected with BCMA, above parental 293T background
[8] = target: T2, BCMA on cells (293T cells transfected …); experiment: flow cytometry, 293T cells transfected with BCMA

B1: SCT-Aa17(h/h) (antibody, V domains shown)
VH: EVQLQQSGPELVKPGASVKMSCKASGYTFTSYVMDWVKQKPGQGLEWIGYINPYNDGTKYNEKFKGKATLTSDKSSSTVYMELSSLTSEDSAVYHCARSDYDYGYAMDYWGQGTSVTVSS
VL: DIQMTQSPASLSLSVGETVTITCRASENIYSNLAWYQQKQGNSPQLLVYSATHLADGVPSRFSGSGSGTQYSLKINSLQSEDFGCYYCQHFWGPPWTFGGGTKLEIK
notes: Full IgG format, chimeric: human IgG1 heavy chain constant region, human kappa light chain constant region
Q: B1 was tested. Which Kd [1] did it give?
A: The Kd was 2.45 nM.

Q: What about the koff [1] of the same binder?
A: The koff was 0.0132 s⁻¹.

Q: What about the kon [1] of the same binder?
A: Its kon is 5.39e+06 M⁻¹ s⁻¹.

Q: What about the “Positive (%)” value [2] of the same binder?
A: Its value is 75%.

Q: What about the Mean fluorescent intensity [3] of the same binder?
A: Its Mean fluorescent intensity is 232.

Q: What about the EC50 [4] of the same binder?
A: The EC50 was 2.17 µg/mL.

Q: And the EC50 [5]?
A: The EC50 was 0.00356 µg/mL.

Q: What about the EC50 [6] of the same binder?
A: The EC50 was 4.33 µg/mL.

Q: And the “Positive (%)” value [7]?
A: Its value is 43%.

B2: SCT-Aa02 (antibody, V domains shown)
VH: EVKLLQSGGGLVQPGGSLKLSCAASGIDFSRYWMSWVRRAPGKGLEWIGEINPDSSTINSAPSLEDKFIISRDNAKNTLYLQMSKVRSEDTALYYCASLYYDYERDYAMDYWGQGASVTVSS
VL: DIVMTQSQKFMSTSVGDRVSVTCKASQNVGTNVAWYQQKPGQSPKALIYSASYRFSGVPDRFTGSGSGTDFTLTISNVQSEDLAEYFCQQYHSYPFTFGGGTKLEIK
Q: Does B2 bind [8]?
A: Result: binds

B3: SCT-Aa13(h/h) (antibody, V domains shown)
VH: QVQLQQSDAELVKPGASVKISCKVSGYTFTDYTIHWMKQRPEQGLEWIGYIYPRDGSTKYNEKFKGKATLTADKSSSTAYMQLNSLTSEDSAVYFCARWDYEGFDYWGQGTTLTVSS
VL: DIVMTQSPATLSVTPGDRVSLSCRASQSISDYLHWYQQKSHESPRLLIKYASQSISGIPSRFSGSGSGSDFTLSINSVEPEDVGVYYCQNGHSFPPTFGSGTKLEIK
notes: as for B1
Q: For B3, which Kd [1] is on record?
A: Its Kd is 4.85 nM.

Q: And the koff [1]?
A: The koff was 0.0157 s⁻¹.

Q: And the kon [1]?
A: The kon was 3.23e+06 M⁻¹ s⁻¹.

Q: And the “Positive (%)” value [2]?
A: The value was 96.5%.

Q: And the Mean fluorescent intensity [3]?
A: The Mean fluorescent intensity was 756.

Q: What about the EC50 [4] of the same binder?
A: The EC50 was 0.131 µg/mL.

Q: What about the EC50 [5] of the same binder?
A: Its EC50 is 0.00268 µg/mL.

Q: What about the EC50 [6] of the same binder?
A: The EC50 was 0.019 µg/mL.

Q: What about the “Positive (%)” value [7] of the same binder?
A: The value was 74.3%.

B4: SCT-Aa06(h/h) (antibody, V domains shown)
VH: EVQLQQSGPELVKPGNSVKISCKASGYSFTGYFMNWVMQSHGKSLEWIGRINPYNGDTFYNQKFKGKATLTVDKSSSTAHMELRSLTSEDSAVYYCARLDYTNYNSYPMDYWGQGTSVTVSS
VL: DIQMTHTTSSLSASLGDRVTISCSASQGISNYLNWYLQKPDGTVKLLIYYTSNLHSGVPSRFSGSGSGTDFSLTISNLQPEDIATYYCQQYSKFPWTFGGGTKLEIK
notes: as for B1
Q: B4 was tested. Which Kd [1] did it give?
A: Its Kd is 5.38 nM.

Q: And the koff [1]?
A: The koff was 0.02 s⁻¹.

Q: What about the kon [1] of the same binder?
A: Its kon is 3.72e+06 M⁻¹ s⁻¹.

Q: And the “Positive (%)” value [2]?
A: The value was 99.6%.

Q: And the Mean fluorescent intensity [3]?
A: The Mean fluorescent intensity was 1260.

Q: What about the EC50 [4] of the same binder?
A: The EC50 was 0.0976 µg/mL.

Q: And the EC50 [5]?
A: Its EC50 is 0.00278 µg/mL.

Q: And the EC50 [6]?
A: Its EC50 is 0.0972 µg/mL.

Q: What about the “Positive (%)” value [7] of the same binder?
A: Its value is 82.8%.

B5: SCT-Aa16(h/h) (antibody, V domains shown)
VH: EVQLQQSGPELVKPGASVKMSCKGSGYTFTNYIMHWVKQKPGQGLEWIGYIIPYNDNTKYNEKFKGKATLTSDKSSSTAYMELSSLTSEDSAVYYCATYEYDVGLDYWGQGTTLTVSS
VL: DLQMTQTTSSLSASLGDRVTISCSARQGIVNYLNWYQQKPDGTVKLLIYNTSSLHSGVPSRFSGSGSGTDYSLTISNLEPEDIATYYCQQYSKLPWTFGGGTKLEIK
notes: as for B1
Q: For B5, which Kd [1] is on record?
A: Its Kd is 26.7 nM.

Q: What about the koff [1] of the same binder?
A: The koff was 0.199 s⁻¹.

Q: And the kon [1]?
A: Its kon is 7.43e+06 M⁻¹ s⁻¹.

Q: What about the “Positive (%)” value [2] of the same binder?
A: Its value is 96.1%.

Q: What about the Mean fluorescent intensity [3] of the same binder?
A: Its Mean fluorescent intensity is 853.

Q: What about the EC50 [4] of the same binder?
A: Its EC50 is 0.0778 µg/mL.

Q: And the EC50 [5]?
A: The EC50 was 0.00201 µg/mL.

Q: And the EC50 [6]?
A: Its EC50 is 1.08 µg/mL.

Q: What about the “Positive (%)” value [7] of the same binder?
A: Its value is 68.1%.

B6: SCT-Aa18(h/h) (antibody, V domains shown)
VH: EVQLQQSGPELVKPGASVKISCKASGYTFISYVMHWVKQKPGQGLEWIGYIIPYNDGTKYNEKFKGKATLTSDKSSSTAYMELSSLTSEDSAVYYCAKWGNWDEGTWFPYWGQGTLVTVSA
VL: DVLMTQTPLSLPVSLGDQASFSCRSSQSIVHSDGNTYLEWYLQKPGQSPKLLIYKISNRFSGVPDRFSGSGSGTDFTLKISRVEAEDLGVYYCFQGSHVPWTFGGGTKLEIK
notes: as for B1
Q: For B6, which Kd [1] is on record?
A: Its Kd is 12.2 nM.

Q: What about the koff [1] of the same binder?
A: Its koff is 0.0506 s⁻¹.

Q: What about the kon [1] of the same binder?
A: The kon was 4.15e+06 M⁻¹ s⁻¹.

Q: And the “Positive (%)” value [2]?
A: Its value is 97%.

Q: What about the Mean fluorescent intensity [3] of the same binder?
A: Its Mean fluorescent intensity is 875.

Q: What about the EC50 [4] of the same binder?
A: Its EC50 is 0.0788 µg/mL.

Q: What about the EC50 [5] of the same binder?
A: Its EC50 is 0.00268 µg/mL.

Q: And the EC50 [6]?
A: The EC50 was 0.271 µg/mL.

Q: And the “Positive (%)” value [7]?
A: The value was 76.1%.
